Laboratory results from the DeepSol protein solubility set.

test: soluble on expression in E. coli; label from the status in PepcDB or PDB records

| Sequence | soluble on expression in E. coli |
| --- | --- |
| PIDWNPQRIAVSGVSGVGKTTLCKQIAALSGFPRVELDSLYHGENWVPRETFVAEVQDFIKGPQWVMELQYRQVRPLIVERADTVLWLDYSTPRQMFRLIKRTIPRSLFKTKL | not soluble |
| MRHAKSAYPDGIADHDRPLAPRGIREAGLAGGWLRANLPAVDAVLCSTATRARQTLAHTGIDAPARYAERLYGAAPGTVIEEINRVGDNVTTLLVVGHEPTTSALAIVLASISGTDAAVAERISEKFPTSGIAVLRVAGHWADVEPGCAALVGFHVPR | soluble |
| MSCINLPTVLPGSPSKTRGQIQVILGPMFSGKSTELMRRVRRFQIAQYKCLVIKYAKDTRYSSSFCTHDRNTMEALPACLLRDVAQEALGVAVIGIDEGQFFPDIVEFCEAMANAGKTVIVAALDGTFQRKPFGAILNLVPLAESVVKLTAVCMECFREAAYTKRLGTEKEVEVIGGADKYHSVCRLCYFKKASGQPAGPDNKENCPVPGKPGEAVAARKLFAPQQILQCSPAN | not soluble |
| MKTKFYDYQGEHLILYFAGWGTPPDAVNHLILPENHDLLICYDYQDLNLDFDLSAYRHIRLVAWSMGVWVAERVLQGIRLKSATAVNGTGLPCDDSFGIPYAIFKGTLENLTENTRLKFERRICGDKASFERYQLFPARPFDEIHQELTALFAMIQQDKRIDLIHWANAWVSSRDKIFTPANQHQYWALRCAVQEIEGEHYVFSRFTHWSALWDH | not soluble |
| PCRECGRPMMIRTASTGVFLGCSGYSLPPKERCKATVNLIPGDEIAADDEGESESRVLRGKHRCPICSTAMDAYLLDEKHKLHICGNNPDCPGYEIEEGQYRIKGYEGPSLECDKCGSEMQLKTGRFGKFFGCTNPTCKNTRKLLK | not soluble |
| MGSDKIHHHHHHMTEQITEIDTLVVGAGQAGVAMSEHLTRLDIPHLVLEKQGIAQAWRSGRWDSLVANGPAWHDRFPGMVFPDCPPDSFVGKEQVADYFAAYARSFNAPIRTGVEVYSAERLAGRPGFRIDTSQGVIEAQRIVAATGPFQRPVIPAIAPQSPAIQQLHSAHYFNPQQLPEGGVLVIGAGSSGVQIADELQRAGRAVWLSVGAHDRPPRRYRQRDFCWWLGVLGMWDAAANAPGKEHVTIAVSGARGGHTVDFRQLAHQGVTLVGQTRGFDGDKALFHPDLAENIRRGDASYLALLDAADAWVARNGMDLPEEPSAREFLPDPACVTDPLLSLNLAEAGIGTIIWATGYTTDYRWLKVNAFDDAQRPQHHRGVSTEPGVYFLGLPWLSRRGSTFIWGVWHDAKYIADQIAIQRQYQRYQPSC | not soluble |
| MKIRSQVGMVLNLDKCIGCHTCSVTCKNVWTGREGMEYAWFNNVETKPGIGYPKNWEDQQEWQGGWVRDVNGKIRPRLGGKMGVISKIFANPVIPQIDDYYEPFTFDYQHLHNAPESKHQPTARPRSLIDGKRMDKVIWGPNWEELLGGEFEKRARDRNFDNIQKEMYGQFENTFMMYLPRLCEHCLNPSCVATCPSGAIYKREEDGIVLIDQDKCRGWRLCISGCPYKKIYFNWKSGKSEKCIFCYPRIESGQPTVCSETCVGRIRYLGVLLYDADRIEEAASTEHETDLYERQCDVFLNPHDPAVIEEALKQGIPQNVIDAAQRSPVYKMAMDWKLALPLHPEYRTLPMVWYVPPLSPIQSYADAGGLPHNGNILPAVETLRIPVQYLANMLSAGDTGPVIRALKRMMAMRHYMRSQTVEGVTDTRAIEEVGLSIQQVEEMYRYLAIANYEDRFVIPTSHREMARDAFPERNGCGFTFGDGCHGSDTKFNLFNSSRIDAINITEVRDKAEGE | not soluble |
| GMAGKVEARKAALREKLIDLAEAQIEAEGLASLRARELARQADCAVGAIYTHFQDLNALTLEVNGRTFARLGAAVGAVVADGQDDHPNERLIAMSHAYLAFAREHPKLWRALFDVEMRSDGPVPQWYGHAMAQLFSYITTPLAKIFPESDDAELDLMTRTLFSSVHGIVLLGLENRISGVPGEQLKTMIRLLLEQVGR | soluble |
| MGSDKIHHHHHHMLKFLKDSKVDFTVRCCGVSSIPCALFFLTRSTNRTYSILVKEWKNIEKLLDPFFTKGIDQLSMVDALRILMRIGDTLNGVRNHERLYRYIDSLFPAQKIPGGLEIWAFDLFEGKEVVFKEGDDLRRALKISLSFPILYRPYEDRYVPITWITGVPEGELTVLFDVKKEKNPPRNALEYLFLSTTARTKHLERERIKKAKSLRIACTSLSPVSTTRRAYEEFSRFFEEVVL | not soluble |
| MGHHHHHHSHMANSAGSMANSAGSMAKTIKDIKAMVEQAAIQSIHKSSSNVKQIMVKTGQEHIVEDVYGAYDPLLYERTGQVKDAFITTNESNGVSLDNIREDDGKDIATVIETGQGYTYPDSYGYGYGNPRPFMKNTSETLRDGRLTAALKKDLKADGIKTD | not soluble |
| MSLTTPTMIAAVVEEANGPFVLRKLARPQPAPGQVLVQIEASGTNPLDAKIRAGEAPHAQQPLPAILGMDLAGTVVAVGPEVDSFRVGDAVFGLTGGVGGLQGTHAQFAAVDARLLASKPAALTMRQASVLPLVFITAWEGLVDRAQVQDGQTVLIQGGGGGVGHVAIQIALARGARVFATARGSDLEYVRDLGATPIDASREPEDYAAEHTAGQGFDLVYDTLGGPVLDASFSAVKRFGHVVSCLGWGTHKLAPLSFKQATYSGVFTLHTLLANEGLAHFGEMLREADALVQTGKLAPRLDPRTFSIAEIGSAYDAVLGRNDVPRQRGKIAITVEPQFNLHEQREGHHHHHH | soluble |
| MISLPSGTRIWLVAGVTDMRKSFNGLGEQVQHVLDETPFSGHLFIFRGRRGDTVKILWADADGLCLFTKRLEEGQFIWPAVRDGKVSITRSQLAMLLDKLDWRQPKTFRLNSLTML | not soluble |
| MREHTLKNGMKLLMVERHTSPTVAAWIRFRVGSVDERSDERGIAHLLEHMLFKGTKTLGTKDYAAEKPLLDKIEETAQALIAEKAKGARADAGRVDELGKKLNALEADAGKYVIKEEFAEIYARNGGAGYNAMTGKDGTTYLINMPSNKLELWAAIEGDRMQNAVLREFYTERDVVMEERRRSYDTEPGSKLWETFVAVTYNAHPYGQPIIGWMSDLENLTRTKAEEFFRRYYKPNNAIVALVGDIDPDKTIALVEKYFGDIPPGTLVGPVAVVEPAQQGERRVEILADAEPELLVGFHKPTLPNPDDYVFDVIDMILADGRTSRLYKKLVVEKQLAAEVSTFSAPGSRYPNLFVLAATPRAPHTAKEVEDAIYEELERLKKEPMTERELAQILNRLEYEESRQMISNGGLARNLTEYEAVTGSWRYLIEHRKEVAKVTPDDVIRVARKYFVRENRTVGVITKKEDVK | not soluble |
| MSLTITVNGVEISEDMIASQLDHYADTPSPRDTAIQQLILHTLLIQQAKSEGLDVADEQQAIQTLLDSKLQVPAIDEASCREFYDRYPERFSAGESAVASHILLPKGEGLEASLIKAKAEGILEEAQANPSRFAALAQEHSTCPSGKQGGSLGQFGRGQMVPEFEQAVFSTEAGQITPHLVETQFGYHIIQVEQRAEGGKIGFDEVKERLQHYLADLAVNQAMHEYLNMLVSAAQISGYQMTAEGHHHHHH | soluble |
| MSLSGFDADAIDRTTAADLAEVGSDKWTRYPGCIGAFIAEMDYGLAPCIQQAIDSACDHCKLGYIPEPWKRRVAEACAGWQKSHYGWDVDPDIIRVVPDVLEAYEIFLRELVGAGNAVVVPTPAYMPFLSVPKLYDVDVIEIEMLQGTDETTGEREWLFDFNAIERAFAAGCHAFVLCNPHNPIGKVLTLAEEQRLCELAERYDVRIFNDEIHAPFVFEGRHIPYPTISKAAARQSMTATSASKSFNIPGTKCAQVLLTNPADREMWAERAEWSEHQTATIGAIATTTAYNEGDPWFQDALSYVRRNLGLFDKQMRTRFSGVGYIRPRGTYIAWLDFGPLGIDDPAAYFLEKAKVALTDGRSCGRAGAGCVRVNMAMPYPLLVDCLNRMHDALQADGEGHHHHHH | soluble |
| MRYSFVIQWDFETVYTGVNSTTNLAFSVKAMTTNFANLQELQDSLVLRGQNLTTQLFWKPTVKRLVLGNNNDLTTVAKAAVGDNLFTTQANLTKSVLDQTVLKEAESRFEATVLKPFIEARQKALAEHQAHQKVLEEQRQKQLEELKQKQKEAE | soluble |
| SMDPPPSETHKLVVVGGGGVGKSALTIQFIQSYFVSDYDPTIEDSYTKICSVDGIPARLDILDTAGQEEFGAMREQYMRAGHGFLLVFAINDRQSFNEVGKLFTQILRVKDRDDFPVVLVGNKADLESQRQVPRSEASAFGASHHVAYFEASAKLRLNVDEAFEQLVRAVRKYQEQELPPS | soluble |
